Experimental data: publication PMC10126205, “A comparative analysis of lipoprotein transport proteins: LolA and LolB from Vibrio cholerae and LolA from Porphyromonas gingivalis” (Scientific Reports, 2023)
“And” between values parts separate entries of the source, which are not always exact repeats. Identical values can stand only once.

Columns and labels:
[1] = molecular target: T1, LolA (LolA-PG) (Porphyromonas gingivalis, UniProt B2RI10); assay: isothermal titration calorimetry (single-site model, […] °C); type: binding
T1 construct: gene PGN_0486; LolA residues 27–215

[2] = molecular target: LolB (Escherichia coli) (UniProt P61320); conditions: cited from earlier work
[3] = molecular target: LolB from Vibrio cholerae (Vibrio cholerae); assay: ITC; LolA injected on LolB-VC (750 µM and 100 µM); MicroCal auto-iTC200, 25 °C, 20 mM HEPES pH 7.5, 150 mM NaCl; heats of LolA on buffer subtracted; single site binding model; no lipoprotein present
[4] = molecular target: LolB from Vibrio cholerae (Vibrio cholerae (strain A1552)); assay: ITC; MicroCal auto-iTC200, 25 °C, 20 mM HEPES pH 7.5, 150 mM NaCl; LolA injected onto LolB, 20 injections, stirring 300 rpm; single site binding model; no lipoprotein present

N=C(N)SCc1ccc(Cl)c(Cl)c1 [A22]
Kd [1]: 681 ± 44.1 µM

LolA (from UniProt P61316)
Kd [2]: 30.6 µM

LolA from Vibrio cholerae (from UniProt A5F2G9 17-198) (natural protein)
Kd [3]: 27.5 µM and 32.9 µM | stoichiometry N [3]: 0.72 and 0.83 and 0.78

B1: LolA from Vibrio cholerae (natural protein)
chain: APKDTLSERLAMSEGFSATFNQQVLSPEGKVILTGNGKVDIARPSLFRWETETPDENLLVSDGTTLWHFDPFVEQVTLYRAEEALEQTPFVLLTRNKASDWDAYHVEEKGDVFTLTPTALDSNQGRFQITISEKGVVQGFKVIEQDGQQSEFTFSKVKQQKPNASVFNYKVPKGVEVDDQRN
Kd [4]: 30.2 µM
